Laboratory results: the supplement of paper PMC12764529
± gives the half width of the 95% confidence interval.

Legend:
[1] = folding stability dG unfold from trypsin proteolysis; higher = more stable
In short: (§1)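 Mini-proteins designed to be under 80 residues and free of cysteine were carried in a PA-tagged cDNA display construct and digested with trypsin and with chymotrypsin. Each protease was applied at 11 threefold-diluted concentrations, alongside a no-protease condition, before sequencing. K50 came from Bayesian fitting of the sequencing counts, and unfolding free energy was obtained by comparing it with a sequence-predicted unfolded-state K50 and a shared folded-state K50, for each protease separately or for both together. Designs were retained only if their AlphaFold2 dimer inter-PAE exceeded 15.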

[2] = folding stability dG unfold from chymotrypsin proteolysis; higher = more stable
In short: as §1

[3] = folding stability dG unfold (combined trypsin and chymotrypsin); higher = more stable
In short: as §1

| Sequence | folding stability dG unfold [1] | folding stability dG unfold [2] | folding stability dG unfold [3] |
| --- | --- | --- | --- |
| SAGGKEKKPKVELKITSISEFEGGLVIEGEATTPTKKIKVLAVYDPSTGKITVWRETPEGIEPLAEFGSAGG [r13_445_TrMRF] | 1.76 ± 0.059 kcal/mol | 2.401 ± 0.018 kcal/mol | 2.18 ± 0.049 kcal/mol |
| SAGGKEKVKIKIKIIDKKTNKVYEAEATFDKETGKVTITFPDGSKITFDLKTNKLYIEKDGKIIEIESAGGS [r16_743_TrROS_Hall] | 2.66 ± 0.27 kcal/mol | 3.53 ± 0.091 kcal/mol | 3.19 ± 0.28 kcal/mol |
| SAGGKEKYKIKIYNKKTGKEYEFEIPLDEIVKYDKKNKKIYIKLKNGKKLEFKSLEDIVKIEIEKLPSAGGS [r8_111_TrROS_Hall] | 2.34 ± 0.088 kcal/mol | 3.48 ± 0.056 kcal/mol | 3.14 ± 0.14 kcal/mol |
| SAGGKELILKLKIEVNGKTLTIEVKVSPEELKKLLDELKKLGIKEIEIESIEFDKETNEIKVKVKVKSAGGS [r8_219_TrROS_Hall] | 2.52 ± 0.063 kcal/mol | 4.09 ± 0.17 kcal/mol | 3.77 ± 0.15 kcal/mol |
| SAGGKEVKPIKGKVKITVNGKEIEVEVKKAKIVKNKDGSYYIFIEKDGKKLLIKLKNGKLVKIEEVPSAGGS [r16_721_TrROS_Hall] | 2.37 ± 0.097 kcal/mol | 3.89 ± 0.042 kcal/mol | 3.42 ± 0.089 kcal/mol |
| SAGGKEWYIKVSIEHRNPNNGEKRELSITIPVEGMSAEEALDIARELARHLPPENVKIEVDIVPLDDSAGGS [r16_774_TrROS] | 1.78 ± 0.051 kcal/mol | 2.08 ± 0.032 kcal/mol | 1.86 ± 0.17 kcal/mol |
| SAGGKEYTAKVVEIKKVGNKIFIKIKLSDGRELTIEIKTPEEAKKLKVGDTVKITVNEDGSLTIEVLSAGGS [r16_2_TrROS_Hall] | 4.22 ± 0.15 kcal/mol | 4.33 ± 0.064 kcal/mol | 4.29 ± 0.074 kcal/mol |
| SAGGKGKAVPFEIEFEAPGGKKVKAKITRIDLPDKPIYRVEVEVDGKKITYTATEDEAANLTFTPGGSAGGS [r8_257_TrMRF] | 1.48 ± 0.058 kcal/mol | 2.21 ± 0.035 kcal/mol | 1.92 ± 0.16 kcal/mol |
| SAGGKIEVEPEVELYRTPDGRLVARPKPVKVKITLKLTITNENGEKKTIEVEADTPEEALAALKALSSAGGS [r8_440_TrROS_Hall] | 1.03 ± 0.053 kcal/mol | 0.726 ± 0.2 kcal/mol | 0.965 ± 0.14 kcal/mol |
| SAGGKIIAEGEFELEDGYVVRVKVEYDEETGELRVEVEVFEVEVELPEVEVKREFSDEELTEEEKEASAGGS [r8_461_TrROS_Hall] | 0.897 ± 0.19 kcal/mol | 1.77 ± 0.17 kcal/mol | 1.39 ± 0.25 kcal/mol |
| SAGGKIKIKSVEVQPNPDGMRKVTLEFQDGGKEHKVEIYVHPGGIMISIPNGKTRTIPWDDLDDIKLSAGGS [r16_593_TrROS] | 0.52 ± 0.093 kcal/mol | 1.22 ± 0.15 kcal/mol | 1.01 ± 0.18 kcal/mol |
| SAGGKIKIQFNGQEFTITEFEIIEPQPNKGGGPYYRIRIKFPNGPMEIMIPPNMPPEIKPGDTFTIASAGGS [r16_638_TrROS] | 1.797 ± 0.015 kcal/mol | 1.96 ± 0.032 kcal/mol | 1.93 ± 0.066 kcal/mol |
| SAGGKIPKNAKILEVEFDPETGYIRIKVEFYDKNGKLIKKAEITIPILPVPPLSPEDIEKLLKALASSAGGS [r16_697_TrMRF] | 3.15 ± 0.12 kcal/mol | 3.85 ± 0.17 kcal/mol | 3.59 ± 0.17 kcal/mol |
| SAGGKIPPGMKLEIEDINIEFYNNGWIKITVKMTIWAPDGKTMTMTMTIVIPIRPPPPPPNDPENNESAGGS [r8_90_TrROS] | 3.91 ± 0.45 kcal/mol | 4.77 ± 0.24 kcal/mol | 4.29 ± 0.44 kcal/mol |
| SAGGKKETVKVTLEIEVNGKKYKIELTKNKDGTVTIKITDKNGKKIEIEIPMSPEDVKKLLEELLKKLSAGG [r13_296_TrROS_Hall] | 2.17 ± 0.11 kcal/mol | 3.93 ± 0.094 kcal/mol | 3.56 ± 0.076 kcal/mol |
| SAGGKKFYVEVKINLKDKTIYLIKEVKPGNLEKLIKEIEKKGIKEAGIDEIKIFPKDGYIEIKGGEKSAGGS [r8_219_TrMRF] | 0.279 ± 0.061 kcal/mol | 1.18 ± 0.08 kcal/mol | 0.801 ± 0.1 kcal/mol |
| SAGGKKHYLVKVKATLTDKNGKKIAEVEFIFHFESPEELEEALKSIPSKYITEVKILSIEEIPEEEFSAGGS [r16_677_TrMRF] | 3.36 ± 0.18 kcal/mol | 3.65 ± 0.091 kcal/mol | 3.55 ± 0.18 kcal/mol |
| SAGGKKIEIKEGDTVKLKNATITLNGKTFKIKDAEAKVVKVDKKKKKVIIEITLKNGKKETFVFDIKSAGGS [r8_215_TrROS_Hall] | 2.4 ± 0.13 kcal/mol | 3.331 ± 0.026 kcal/mol | 3.15 ± 0.16 kcal/mol |
